Experimental data taken from paper PMC9677513.

Experiments:
[1] = molecular target: E275K-BRAF^FL-RLuc8 (human) (UniProt P15056); assay: FRET or BRET
Nano-CRAF^CAT (human) = Nano-CRAF^CAT (human) (UniProt P04049); assay: FRET or BRET

Row | increase of BRETmax over WT [1] | increase of BRET signal over CRAF^REG (Nano-CRAF^CAT (human)) | Substance
1 | 15% | – | Venus-KRAS^G12V (from UniProt P01116 1-189) (natural protein)
2 | – | 40% | CRAF^REG construct containing the BRAF-CRD, Halo-tagged (domain or fragment)
